Laboratory results as given in the Immune Epitope Database (IEDB).

Molecular target: HLA-A*68:02
Experiment: IEDB peptide-MHC binding, purified MHC/competitive/radioactivity; ≥ and ≤ were set here for values at or beyond the usual limits of such assays
Settings: source organism: Hepacivirus hominis

| Sequence | IC50 [nM] |
| --- | --- |
| FMRDEVSFSV | 2950 |

Same assay, conditions: source organism: Influenza A virus

| Sequence | IC50 [nM] |
| --- | --- |
| FQVDCFLWH | 3660 |

Same assay, conditions: source organism: Mammarenavirus choriomeningitidis

| Sequence | IC50 [nM] |
| --- | --- |
| FSTSAYLISI | 1.4 |

Same assay, conditions: source organism: Mammarenavirus lassaense

| Sequence | IC50 [nM] |
| --- | --- |
| FSTSFYLISI | 1.8 |

Same assay, conditions: source organism: SARS-CoV1

| Sequence | IC50 [nM] |
| --- | --- |
| FICNLLLLFV | 1070 |
| FLAFLLFLV | 66 |
| FLAFLLFLVL | 3810 |
| FLAFVVFLL | 391 |
| FLAFVVFLLV | 4320 |
| FLAHLQWFA | 17 |
| FLCLFLLPSL | 729 |
| FLFLAWIML | 1340 |
| FLIVAALVFL | 1090 |
| FLLPSLATV | 16 |
| FLNGSCGSV | 318 |
| FMRFFTLGSI | 412 |
| FTLLFQLCT | 2740 |
| FVDEFYAYL | 38 |

Same assay, conditions: source organism: Vaccinia virus WR

| Sequence | IC50 [nM] |
| --- | --- |
| ELKHGLLDSI | 266 |
| ELTTVFIKYV | 81 |
| EMVEYLENQL | 1650 |
| ETIEILRNYL | 0.13 |
| ETIQKDINIT | 69 |
| ETLPELNLSL | 648 |
| EVERLMELPV | 1220 |
| EVNDTHYTV | 0.5 |
| FAISYCRAFI | 1.7 |
| FIASAPQQL | 35 |
| FIISTLNKI | 1500 |
| FIMRNFLRSI | 131 |
| FIPIIYSKA | 78 |
| FISIYSRPKI | 592 |
| FISPASISSV | 17 |
| FISSFLLPLT | 982 |
| FITVLTSVDI | 1240 |
| FLDWIKDIMT | 4860 |

| Sequence | IC50 [nM] |
| --- | --- |
| FLFWFLKSGA | 38 |
| FLLPLTSLVI | 1020 |
| FLPQIGGEA | 149 |
| FLTGTFVTA | 896 |
| FMSHVKSVT | 2600 |
| FMYTKHSML | 3540 |
| FQESFYEDIA | 2910 |
| FTEGKINPLL | 243 |
| FTFGDTALYV | 175 |
| FTILEYLYI | 22 |
| FTILEYLYIM | 2170 |
| FTKDGKLDDT | 4080 |
| FTNSQIFNI | 0.23 |
| FTNSQIFNII | 16 |
| FTSDYPFYV | 1.1 |
| FVATFRDML | 12 |
| FVATFRDMLL | 409 |

Molecular target: HLA-A*02:02
Experiment: as above
Settings: source organism: Hepacivirus hominis

| Sequence | IC50 [nM] |
| --- | --- |
| FMRDEVSFSV | 2.2 |

Same assay, conditions: source organism: Influenza A virus

| Sequence | IC50 [nM] |
| --- | --- |
| FQVDCFLWH | 216 |

Same assay, conditions: source organism: Mammarenavirus choriomeningitidis

| Sequence | IC50 [nM] |
| --- | --- |
| FSTSAYLISI | 0.68 |

Same assay, conditions: source organism: Mammarenavirus lassaense

| Sequence | IC50 [nM] |
| --- | --- |
| FSTSFYLISI | 2.1 |

Same assay, conditions: source organism: SARS-CoV1

| Sequence | IC50 [nM] |
| --- | --- |
| FICNLLLLFV | 2.5 |
| FLAFLLFLV | 1.8 |
| FLAFLLFLVL | 13 |
| FLAFVVFLL | 0.41 |
| FLAFVVFLLV | 2.4 |
| FLAHLQWFA | 0.1 |
| FLCLFLLPSL | 0.53 |
| FLFLAWIML | 1.8 |
| FLIVAALVFL | 3 |
| FLLPSLATV | 0.13 |
| FLNGSCGSV | 1 |
| FMRFFTLGSI | 24 |
| FTLLFQLCT | 1100 |
| FVDEFYAYL | 0.089 |

Same assay, conditions: source organism: Vaccinia virus WR

| Sequence | IC50 [nM] |
| --- | --- |
| ELKHGLLDSI | 540 |
| ELTTVFIKYV | 2800 |
| EMVEYLENQL | 212 |
| ETIEILRNYL | 474 |
| ETIQKDINIT | 354 |
| ETLPELNLSL | 52 |
| EVERLMELPV | 2460 |
| EVNDTHYTV | 133 |
| FAISYCRAFI | 105 |
| FIASAPQQL | 2 |
| FIISTLNKI | 1.6 |
| FIMRNFLRSI | 28 |
| FIPIIYSKA | 0.56 |
| FISIYSRPKI | 23 |
| FISPASISSV | 3 |
| FISSFLLPLT | 39 |
| FITVLTSVDI | 1420 |
| FLDWIKDIMT | 424 |

| Sequence | IC50 [nM] |
| --- | --- |
| FLFWFLKSGA | 1.1 |
| FLLPLTSLVI | 11 |
| FLPQIGGEA | 21 |
| FLTGTFVTA | 4.7 |
| FMSHVKSVT | 508 |
| FMYTKHSML | 2.4 |
| FQESFYEDIA | 2560 |
| FTEGKINPLL | 150 |
| FTFGDTALYV | 24 |
| FTILEYLYI | 1560 |
| FTILEYLYIM | 355 |
| FTKDGKLDDT | 145 |
| FTNSQIFNI | 6.9 |
| FTNSQIFNII | 143 |
| FTSDYPFYV | 2.1 |
| FVATFRDML | 2350 |
| FVATFRDMLL | 0.7 |

Molecular target: HLA-A*02:01
Experiment: as above
Settings: source organism: Hepacivirus hominis

| Sequence | IC50 [nM] |
| --- | --- |
| FMRDEVSFSV | 4 |

Same assay, conditions: source organism: Influenza A virus

| Sequence | IC50 [nM] |
| --- | --- |
| FQVDCFLWH | 336 |

Same assay, conditions: source organism: Mammarenavirus choriomeningitidis

| Sequence | IC50 [nM] |
| --- | --- |
| FSTSAYLISI | 9 |

Same assay, conditions: source organism: Mammarenavirus lassaense

| Sequence | IC50 [nM] |
| --- | --- |
| FSTSFYLISI | 32 |

Same assay, conditions: source organism: SARS-CoV1

| Sequence | IC50 [nM] |
| --- | --- |
| FICNLLLLFV | 2.1 |
| FLAFLLFLV | 8.3 |
| FLAFLLFLVL | 11 |
| FLAFVVFLL | 0.24 |
| FLAFVVFLLV | 78 |
| FLAHLQWFA | 0.1 |
| FLCLFLLPSL | 0.33 |
| FLFLAWIML | 6.4 |
| FLIVAALVFL | 11 |
| FLLPSLATV | 0.34 |
| FLNGSCGSV | 5.8 |
| FMRFFTLGSI | 105 |
| FTLLFQLCT | 133 |
| FVDEFYAYL | 0.22 |

Same assay, conditions: source organism: Vaccinia virus WR

| Sequence | IC50 [nM] |
| --- | --- |
| ELKHGLLDSI | 738 |
| ELTTVFIKYV | 2560 |
| EMVEYLENQL | 485 |
| ETIEILRNYL | 944 |
| ETIQKDINIT | 1270 |
| ETLPELNLSL | 1100 |
| EVERLMELPV | 1980 |
| EVNDTHYTV | 3060 |
